# Laboratory results as given in the RNAGym collection of RNA variant scans (doi:10.1073/pnas.2313332121).
# Variants at the floor of the assay were thinned out.
# B1: TPR 5TU (parent)
# chain: GGAUCUUCUCGAUCUAACAAAAAAGACAAAUCUGCCACAAAGCUUGAGAGCAUCUUCGGAUGCAGAGGCGGCAGCCUUCGGUGGCGCGAUAGCGCCAACGUUCUCAACUAUGACACGCAAAACGCGUGCUCCGUUGAAUGGAGUUUAUCAUG
# Variants of: B1
# Experiment: polymerase ribozyme fitness, log enrichment relative to wild type (log ratio); higher = more active; in vitro selection for triplet polymerase activity
# How it was run: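 A heterodimeric triplet polymerase ribozyme had each of its subunits mutagenized by PCR into a library, which was transcribed. One round of in vitro selection, done in triplicate, annealed each library with a biotinylated primer, its partner subunit and triplets, then incubated it frozen at −7 °C before gel excision of extended constructs, streptavidin-bead capture and RT-PCR. Fitness is the logarithm of genotype enrichment relative to wild-type enrichment, based on Illumina sequencing of inputs and outputs and inverse-variance-weighted replicate averages. A base-2 logarithm is used, and genotypes were kept only with ≥10 input reads and ≥1 read per output.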
row,Variant,polymerase ribozyme fitness (log ratio)
1,U53A G83A C103U C132U,-3.25
2,A52G G92C G117U A137G U144A,≤ -4.2
3,A52G G92C,-1.46
4,A52G G92A,-3.13
5,A52G C87U,-1.3
6,A52U U53G G88C A91C,≤ -4.2
7,A52U C96U G100A A147C,≤ -4.2
8,C54U C79U A115G A120G A122U G141U,≤ -4.2
9,U53A C103U,-0.534
10,C54A A121U G141C,-1.65
11,C54U A89C C131U,0.237
12,U53A C85G G133C A150C,≤ -4.2
13,C54G A89C C123G C131A,≤ -4.2
14,A52U G94A G133U G143U,-3.88
15,C54G G94A,-1.68
16,C54G C99G G136U,-3.14
17,U53A C76A G84C A122U,≤ -4.2
18,U53A G81C C85G C108U A138G A147G A150U G152U,-3.91
19,A52U A89U C96A,-2.98
20,C54G C95G A107U C108G G143A U145C,≤ -4.2
21,A52G G83A,-0.0714
22,C54U A73G G83U C95G G100U U135A,≤ -4.2
23,A52U G84A,-2.18
24,U53A A73G G74C C85A U90C,≤ -4.2

row,Variant,polymerase ribozyme fitness (log ratio)
1,C54G C93A,-4.19
2,A52U C76U G86C G126C G152U,≤ -4.2
3,U53A U144A,-1.56
4,U53G C76A U134A,≤ -4.2
5,C54G C76A C85G,-2.78
6,A52G G100U,-3.98
7,C54G G68U C87A U104G,≤ -4.2
8,A52U U77G G84C G128A G143A,≤ -4.2
9,C54A C57G C87U A150G,-3.99
10,U53C C57G U61A G124A G128U,-4.14
11,C54G G59C G83U C87U G94A U102C U148G,≤ -4.2
12,U53G C103A C105G U130A,≤ -4.2
13,A52G G71C C95A C131A U139A,≤ -4.2
14,A52U C95U,-1.52
15,U53A C87A A89U G141C,≤ -4.2
16,C54U G58A A64C G71A,≤ -4.2
17,U53G G141C,-2.53
18,C54U A66G C72U G81C C96A A107G G133U U145A,≤ -4.2
19,C54G A73G C79A U82G C87U A122U G141C,≤ -4.2
20,C54A U56G U78G U82G C114A U144C,≤ -4.2
21,U53G G58A,-1.53
22,U53G U55A,-1.92
23,U53A G70A G88A C96U C123U,≤ -4.2
24,A52G G58C G68C,≤ -4.2

row,Variant,polymerase ribozyme fitness (log ratio)
1,C54G C95A C118G,-2.03
2,C54U C95U G133C,-2.19
3,A52G G70A C96A U102G C129G G143A U146A,≤ -4.2
4,U53A C93G A98G,≤ -4.2
5,A52G G136U A142G,-3.58
6,C54U G84U,-2.22
7,U53C U55A C99U U111C,≤ -4.2
8,U53G G59U C125U G141C,-3.86
9,U53G U61A A97G A113U,-4.18
10,C54G G83U G141U,-1.56
11,U53A G86A A91C G128C,≤ -4.2
12,A52G C125U C131U G143U U146G,≤ -4.2
13,C54G C63G C93U A115U C149G,≤ -4.2
14,A52U G92C,-2.01
15,C54U G59A G70C,-2.48
16,U53A G59A C85G C149U,-3.31
17,U53A G83U A147C,-1.91
18,U53G A73C G83U G117U,≤ -4.2
19,A52G U53A A119U G126C,0.147
20,C54A G92A,≤ -4.2
21,U53G C54G C96G C114U,≤ -4.2
22,U53G C63U G80C G81C G84U G100U,≤ -4.2
23,A52G G83U C96A U101C G124A U145A C149U,-2.95
24,U53A C95G C96G U146A,-3.91

row,Variant,polymerase ribozyme fitness (log ratio)
1,C54G C108U,-4.19
2,C54U G92C A121U,-0.244
3,C54A U56A,-1.31
4,C54U C85G C93U A97C A137U U139G,≤ -4.2
5,U53G,-1.68
6,U53A,-0.874
7,U53C,-0.375
8,C54A U61A C93G C149G,≤ -4.2
9,C54A C87G A98G,≤ -4.2
10,U53A C95U A138C,≤ -4.2
11,U53A C57A U102G C125A U134A,≤ -4.2
12,C54U C95A,-1.44
13,U53G C125U,-1.66
14,A52G G58C G59C C96G A150U,-3.59
15,U53A G84A,-2.38
16,U53A G84U,-1.26
17,C54G U146G,-2.99
18,A52G U55G G58A C95G U134A U139A,≤ -4.2
19,C54A G70A C95U A120G,-3.62
20,C54U A91C G92U C105U G133U,≤ -4.2
21,U53G U61A,-3.21
22,C54U A66U C85U,≤ -4.2
23,U53C C72A U139C A150G,≤ -4.2
24,U53G C54G C85A U134A,≤ -4.2

row,Variant,polymerase ribozyme fitness (log ratio)
1,C54U C75G,-3.81
2,U53A G71A C75G C76U G86A A107U C108U,≤ -4.2
3,C54U C96A A97G,-1.12
4,A52G G141U U145C G152A,-2.27
5,C54U C93U C105G G126C,-2.01
6,U53A G58C A66C G84A A91G U102G A119U C132A,≤ -4.2
7,A52U U55A A115U C118A G126U A150U,≤ -4.2
8,C54G U55A G58U,0.0801
9,C54A G70C G88A C93G U134A U146A,≤ -4.2
10,C54G G59A C76A C85G A121C C123A U127G G140C G143U A150C,≤ -4.2
11,A52G C95G A107G A120G U139C,-4.13
12,C54U G86C,-3.47
13,A52G C57A G84A,-0.599
14,C54G A60G C95G,-2.44
15,C54G C85A G92C G133U U146G,≤ -4.2
16,U53A G62C G84A G136A,-3.58
17,U53G A73G C85U G126U,-2.37
18,U53G A64U C69U C76U A98U C108A,≤ -4.2
19,A52G C93G,-3.95
20,A52G C93A,-3.25
21,A52G C93U,-1.74
22,C54A A91U U109C G140U U146C,≤ -4.2
23,C54U G81A G86U C105A A147U,-4.16
24,A52U U101G,-2.22

row,Variant,polymerase ribozyme fitness (log ratio)
1,A52G C96G G112C,≤ -4.2
2,U53A G152U,-3.33
3,A52G U53G,-3.21
4,C54A C85U C105U A142C,-2.12
5,U53G C87A A120U A142U U146A,≤ -4.2
6,A52G C69G C85G A97U G126A G141U,≤ -4.2
7,U53G A107C,≤ -4.2
8,C54A C96G A97C G143C,≤ -4.2
9,C54U G83C C85G A138G,≤ -4.2
10,C54A U55G A107U U109C G117A C118U A121C,≤ -4.2
11,U53A G136U U144G,-1.85
12,U53A G70C C76A G86U A98U,≤ -4.2
13,A52G G83A A121G,-0.142
14,A52G C79G,-3.71
15,U53A U82G G100A,≤ -4.2
16,C54U C87U C105A,-2.09
17,C54G A97C G124A,-0.735
18,U53A G59A C85A G88A U151A,≤ -4.2
19,C54A C95U,-2.22
20,C54U G84A G92U U144A,-1.38
21,U53A C132U,-1.73
22,U53A C149U,-1.57
23,U53A C54A U82A G141C,-2.84
24,C54A C116G,-0.685

row,Variant,polymerase ribozyme fitness (log ratio)
1,A52G C85G,-2.16
2,A52G C85U,-0.204
3,C54A A115C,-1.87
4,C54G U55A G58A C99G C132A,≤ -4.2
5,C54U G59C A60U A66C,≤ -4.2
6,C54U C76U C123A U139G U146C A150C,≤ -4.2
7,U53G G68A,≤ -4.2
8,U53A C54U C85G,-2.55
9,A52G G94C U102C C131U,-1.64
10,U53A C85U G133C,-2.22
11,A52U A60G C76U A89U C96U,-3.8
12,U53A C131A,-3.17
13,U53A C54U C85U G141U,-1.21
14,C54A U101G C108U A115U G117U C129U G133A,≤ -4.2
15,C54A C57U C95U,-1.9
16,C54U C95U A98G A142U,-1.61
17,C54G A147C,-1.47
18,U53A G126U,0.134
19,U53A G126A,-0.879
20,C54U C96G,-0.994
21,C54U C96U,-0.41
22,C54G G86U,-3.24
23,C54G C75G G86U G92C G124U C125A A137C U151C,≤ -4.2
